Measurements published in patent publication US20260029420A1, “ANTI-CB2 ANTIBODIES AND THEIR USE IN A FLOW CYTOMETRY ASSAY TO MEASURE CELL SURFACE CB2 EXPRESSION” (Hoffmann-La Roche Inc., priority 2022, published 2026).

How the values were obtained:
Type in all cases: binding
CHO K1 hCB1R = molecular target: T1, CHO K1 hCB1R (Homo sapiens, UniProt P21554); assay: Flow cytometry with increasing antibody levels on CHO K1 cells; conditions: 0.1, 1 or 10 μg/ml antibody
T1 construct: expressed in transfected cells; host or cells: CHO K1
T1 sequence (P21554 whole entry): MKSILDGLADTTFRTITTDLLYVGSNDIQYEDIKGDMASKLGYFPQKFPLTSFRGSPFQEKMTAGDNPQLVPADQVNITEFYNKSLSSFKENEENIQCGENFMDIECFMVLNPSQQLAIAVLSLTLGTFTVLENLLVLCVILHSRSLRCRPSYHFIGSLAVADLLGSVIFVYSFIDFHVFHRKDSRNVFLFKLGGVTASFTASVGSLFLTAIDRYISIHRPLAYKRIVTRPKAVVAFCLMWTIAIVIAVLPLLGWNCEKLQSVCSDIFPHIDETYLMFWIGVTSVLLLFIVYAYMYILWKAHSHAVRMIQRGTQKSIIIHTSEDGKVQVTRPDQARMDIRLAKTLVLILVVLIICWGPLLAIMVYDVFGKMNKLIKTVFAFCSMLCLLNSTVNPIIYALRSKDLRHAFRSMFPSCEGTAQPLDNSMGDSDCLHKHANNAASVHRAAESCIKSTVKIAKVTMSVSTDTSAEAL
Source text: (§1) FIG. 3: Analysis of the specificity of the anti hCB2 antibody 1/622 for hCB2. Flow cytometric analysis with increasing concentrations of hCB2 antibody 1/622 in CHO cells transfected with hCB2 (light brick) and hCB1 (dark brick). Untransfected CHO cells (black) serve as a negative control. For detection an F(ab)2 goat-anti Mouse IgG3 PE antibody was used.
(§2) Further evidence for the specificity of the anti-human CB2 antibody 1/622 was generated by flow cytometry experiments using increasing levels of the antibody on untransfected, hCB1 or hCB2 transfected CHO K1.
(§3) The cells were washed 1× with 1× DPBS without CaCl2 and MgCl2 (Gibco, #14190-094). Accutase (Sigma, #A6964) was added and the cell were placed back in the incubator. Once the cells had detached, they were collected in a Falcon tube containing DMEM high glucose+GlutaMAX (Gibco, #31966-021) and 10% heat inactivated FBS (Gibco, #16140-071). Cells were centrifuged for 5 minutes at 250×g and 4° C. and the cell pellet was resuspended in cell staining buffer (BioLegend, #420201) and put them on ice until further usage. The cells were incubated with 0.1, 1 or 10 μg/ml hCB2-1/622 antibody and incubated for 30 minutes at 4° C. After the incubation, the tubes were centrifuged for 5 minutes with 250×g and 4° C. The supernatant was removed completely, cells were washed two times with cold cell staining buffer and supernatant removed completely after the centrifugation. Human FcR Blocking Reagent (Miltenyi Biotech, Cat #130-059-901) was diluted according to the package insert instructions with cold cell staining buffer. To each sample 50 μl was added, mixed and incubated for 10 minutes at 4° C. The secondary antibody Goat F(ab′)2 Anti-Mouse IgG3 PE (Southern Biotech, Cat #1102-09) was diluted 1:25 in cold cell staining buffer. To each sample 50 μl was added, mixed and incubated for 30 minutes at 4° C. in the dark. After the incubation cells were washed 2× with cold cell staining buffer and supernatant removed completely after centrifugation. […]

[1] = tested on: untransfected CHO K1 controls; assay: as above; conditions: 0.1, 1 or 10 μg/ml antibody
Source text: as §1, §2, §3

CHO K1 h CB2 cell line = molecular target: T2, CHO K1 h CB2 cell line (Homo sapiens, UniProt P34972); assay: as above; conditions: 0.1, 1 or 10 μg/ml antibody; CHO K1 hCB2
T2 construct: expressed in transfected cells; host or cells: CHO K1
T2 sequence (P34972 whole entry): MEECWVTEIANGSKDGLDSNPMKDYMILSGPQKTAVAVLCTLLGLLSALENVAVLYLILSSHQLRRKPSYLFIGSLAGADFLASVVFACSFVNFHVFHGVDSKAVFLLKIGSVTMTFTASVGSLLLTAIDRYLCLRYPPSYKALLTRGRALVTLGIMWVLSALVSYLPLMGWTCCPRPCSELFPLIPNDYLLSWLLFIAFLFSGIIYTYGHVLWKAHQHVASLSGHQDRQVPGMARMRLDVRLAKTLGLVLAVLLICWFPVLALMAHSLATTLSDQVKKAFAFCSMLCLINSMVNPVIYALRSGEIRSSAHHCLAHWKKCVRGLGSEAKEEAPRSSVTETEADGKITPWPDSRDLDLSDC
Source text: as §1, §2, §3

pANITA3.1 hCB2 (JB175) = molecular target: T3, pANITA3.1 hCB2 (JB175) (Homo sapiens, UniProt P34972); assay: Immunofluorescence on methanol-fixed transfected cells; set-up: key: “−” no fluorescence detected; “+”-“++++” intensity of fluorescent signal; “+”-“++++” intensity of fluorescent signal; “+”-“++++” intensity of fluorescent signal; “+”-“++++” intensity of fluorescent signal; conditions: pANITA3.1 hCB2 (JB175) cells
T3 construct: expressed in transfected cells; host or cells: HEK293
T3 sequence (P34972 with tags, fused parts or gaps): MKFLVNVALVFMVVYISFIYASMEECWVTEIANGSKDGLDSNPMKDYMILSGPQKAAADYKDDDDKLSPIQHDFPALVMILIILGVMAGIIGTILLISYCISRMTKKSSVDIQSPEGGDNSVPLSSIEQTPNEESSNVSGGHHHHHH
Procedure: (§4) The positive clones (Table 1) were further characterized by immunofluorescence (IF; Table 2), Western Blot (Table 3, 1) and Immune precipitation (Table 4, 2) on full length hCB2, hCB1, mCB2 stable-transfected CHO-cell lines in addition to the 2 pANITA constructs.
(§5) For IF analysis, methanol-fixed cells were incubated for 20 min in a humid chamber at 37° C. with the respective hCB2 and mCB2 clones. After rinsing twice and washing for 15 min in PBS, 125 μg/ml FITC-conjugated […] anti-mouse IgG antibodies (RAM/IgG (H+L)/FITC, Nordic
(§6) Immunological Laboratories) diluted in PBS was added and incubated for 20 min in a humid chamber at 37° C. Cells were rinsed twice and washed for 15 min in PBS, mounted with mounting solution (50% PBS 50% glycerol) and covered with a coverslip. Staining was assessed by fluorescence microscopy on a Leica CTR500 fluorescence microscope and a Leica DFC300 FX digital camera.

pANITA3.1 mCB2 (JB176) = molecular target: T4, pANITA3.1 mCB2 (JB176) (Mus musculus, UniProt P47936); assay: as above; set-up: key: “−” no fluorescence detected; “+”-“++++” intensity of fluorescent signal; “+”-“++++” intensity of fluorescent signal; “+”-“++++” intensity of fluorescent signal; “+”-“++++” intensity of fluorescent signal; conditions: pANITA3.1 mCB2 (JB176) cells
T4 construct: expressed in transfected cells; host or cells: HEK293
T4 sequence (P47936 with tags, fused parts or gaps): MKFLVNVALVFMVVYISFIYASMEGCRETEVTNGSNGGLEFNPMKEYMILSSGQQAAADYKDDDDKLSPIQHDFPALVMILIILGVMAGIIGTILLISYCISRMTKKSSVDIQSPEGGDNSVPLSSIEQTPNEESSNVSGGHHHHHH
Procedure: as §4, §5, §6

CHODukx negative = assay: Immunoprecipitation from whole cell lysates, negative control; set-up: key: “−” no signal; “+”-“+++++” signal intensity; “+”-“+++++” signal intensity; “+”-“+++++” signal intensity; “+”-“+++++” signal intensity; “+”-“+++++” signal intensity; conditions: CHODukx negative lysate
Procedure: as §4
For immunoprecipitation (IP), whole cell lysates were incubated with the respective antibodies. IP was performed according to established protocols and subsequent western blot as described herein above.

CHO-A2 mCB2 = molecular target: T5, CHO-A2 mCB2 (Mus musculus, UniProt P47936); assay: Immunofluorescence on methanol-fixed transfected cells; set-up: key to immunofluorescence signal intensity: “−” no fluorescence detected; “+”-“++++” intensity of fluorescent signal; “+”-“++++” intensity of fluorescent signal; “+”-“++++” intensity of fluorescent signal; “+”-“++++” intensity of fluorescent signal
T5 construct: expressed in transfected cells
T5 sequence (P47936 whole entry): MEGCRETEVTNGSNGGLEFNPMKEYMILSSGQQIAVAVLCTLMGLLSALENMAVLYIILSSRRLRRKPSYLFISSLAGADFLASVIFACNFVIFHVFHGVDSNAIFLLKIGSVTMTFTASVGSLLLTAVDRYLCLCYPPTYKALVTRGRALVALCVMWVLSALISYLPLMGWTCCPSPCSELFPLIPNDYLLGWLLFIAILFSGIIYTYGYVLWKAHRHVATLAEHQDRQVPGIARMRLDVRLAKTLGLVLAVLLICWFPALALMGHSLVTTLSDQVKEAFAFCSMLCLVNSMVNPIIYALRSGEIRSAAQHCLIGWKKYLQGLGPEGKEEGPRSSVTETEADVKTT
Procedure: as §4, §5, §6

CHODukx CRE hCB2 Cl.90 = molecular target: T6, CHODukx CRE hCB2 Cl.90 (Homo sapiens, UniProt P34972); assay: as above; set-up: key to immunofluorescence signal intensity: “−” no fluorescence detected; “+”-“++++” intensity of fluorescent signal; “+”-“++++” intensity of fluorescent signal; “+”-“++++” intensity of fluorescent signal; “+”-“++++” intensity of fluorescent signal
T6 construct: expressed in transfected cells
T6 sequence (P34972 whole entry): as the sequence (P34972 whole entry) above
Procedure: as §4, §5, §6

CHODukx CRE hCB1 Cl.20 = molecular target: T7, CHODukx CRE hCB1 Cl.20 (Homo sapiens, UniProt P21554); assay: as above; set-up: key to immunofluorescence signal intensity: “−” no fluorescence detected; “+”-“++++” intensity of fluorescent signal; “+”-“++++” intensity of fluorescent signal; “+”-“++++” intensity of fluorescent signal; “+”-“++++” intensity of fluorescent signal
T7 construct: expressed in transfected cells
T7 sequence (P21554 whole entry): as the sequence (P21554 whole entry) above
Procedure: as §4, §5, §6

B1: hCB2-1/622: murine IgG3 monoclonal anti-human CB2 antibody, VH SEQ ID NO: 1, VL SEQ ID NO: 2, HC SEQ ID NO: 3, LC SEQ ID NO: 4 (antibody)
heavy: EVQLQQSGPELVKPGASVKISCKTSGYTFTEYTMHWVRQSHGKSLEWIGGIDRYNGDTYYNQKFKDKATLTVDRSSSTAYMELRSLTSEDSAVYFCARNGAMDYWGQGISVTVSSATTTAPSVYPLVPGCSDTSGSSVTLGCLVKGYFPEPVTVKWNYGALSSGVRTVSSVLQSGFYSLSSLVTVPSSTWPSQTVICNVAHPASKTELIKRIEPRIPKPSTPPGSSCPPGNILGGPSVFIFPPKPKDALMISLTPKVTCVVVDVSEDDPDVHVSWFVDNKEVHTAWTQPREAQYNSTFRVVSALPIQHQDWMRGKEFKCKVNNKALPAPIERTISKPKGRAQTPQVYTIPPPREQMSKKKVSLTCLVTNFFSEAISVEWERNGELEQDYKNTPPILDSDGTYFLYSKLTVDTDSWLQGEIFTCSVVHEALHNHHTQKNLSRSPGK
light: DVVMTQTPLSLPVSLGDQASISCRSSQSLVHSNGNTYLHWFLQKPGQSPKLLIYKVSIRFSGVPDRFSGSGSGTDFTLKISRVEAEDLGVYFCSQSTHVPPLTFGAGTKLELKRADAAPTVSIFPPSSEQLTSGGASVVCFLNNFYPKDINVKWKIDGSERQNGVLNSWTDQDSKDSTYSMSSTLTLTKDEYERHNSYTCEATHKTSTSPIVKSFNRNEC
- median fluorescence intensity (MFI) signal (CHO K1 hCB1R): remained at background levels
- median fluorescence intensity (MFI) signal [1]: remained at background levels
- median fluorescence intensity (MFI) signal (CHO K1 h CB2 cell line): dose related increase
- immunofluorescence signal intensity (pANITA3.1 hCB2 (JB175)): ++++
- immunofluorescence signal intensity (pANITA3.1 mCB2 (JB176)): −
- Immunoprecipitation signal intensity (CHODukx negative): −
- immunofluorescence signal intensity (CHO-A2 mCB2; CHO-A2 mCB2 cells): −
- immunofluorescence staining (CHO-A2 mCB2; cells expressing mouse CB2): no staining
- immunofluorescence signal intensity (CHODukx CRE hCB2 Cl.90; CHODukx CRE hCB2 Cl.90 cells): +++
- immunofluorescence staining (CHODukx CRE hCB2 Cl.90; the two cell lines expressing human CB2): high fluorescent signal intensities
- immunofluorescence signal intensity (CHODukx CRE hCB1 Cl.20; CHODukx CRE hCB1 Cl.20 cells): −
- immunofluorescence staining (CHODukx CRE hCB1 Cl.20; cells expressing human CB1): no staining
